In paper PMC9436816:
One block for each substance: values may come before it.

Experiments:
[1] = biological target: pyruvate kinase M2 (PKM2), endogenous (human (endogenous in A549)) (UniProt P14618); experiment: cross-linking; whole cell lysates (4 mg/ml) cross-linked with 0.025% glutaraldehyde for 3 min at 37 °C, stopped with Tris-HCl pH 8.0, WB; cells with or without EGF (100 ng/ml, 1 h), with or without transfected OGT variants
[2] = glutaraldehyde crosslinking, WB; tetramer fraction after EGF; settings: glycan lost; control: Flag-PKM2 WT, EGF-treated
[3] = colorimetric PK activity of immunoprecipitated PKM2 after EGF; settings: glycan lost; control: Flag-PKM2 WT, EGF-treated
[4] = biological target: Flag-tagged PKM2^WT (pyruvate kinase M2) (human) (UniProt P14618); experiment: cross-linking; whole cell lysates (4 mg/ml) cross-linked with 0.025% glutaraldehyde for 3 min at 37 °C, stopped with Tris-HCl pH 8.0, WB; cells with or without EGF (100 ng/ml, 1 h), with or without transfected OGT variants

stoichiometry N [1]: 2
Substance: pyruvate kinase M2 (PKM2), endogenous, P14618 1-531 (enzyme; other documents disagree on this pair)

Substance: Pyruvate kinase M2 (PKM2): T405A/S406A
oligomerisation [2]: increases | enzymatic_activity [3]: increases

stoichiometry N [4]: 2
Substance: Flag-tagged PKM2^WT (pyruvate kinase M2), P14618 1-531 (enzyme; other documents disagree on this pair)
